Source: PMC5101896, “Enhanced cellular uptake of lactosomes using cell-penetrating peptides” (Science and Technology of Advanced Materials, 2016)
No end group written: not given here.

Tests used:
[1] = Zeta potential by laser Doppler electrophoresis; format: physicochemical; details: Zetasizer Nano ZSP, n = 3, mean ± standard deviation
Experimental: (§1) A chloroform solution containing the (PSar25)3-block-PLLA35 (100 nmol, […]) with 4 mol% of TPP (Wako Pure Chemical, Osaka, Japan), 2 mol% of ICG-PLLA34, and 10 mol% maleimide-PSar56-PLLA30 was evaporated under reduced pressure to remove the solvent, forming a thin film on the surface of the glass test tube. Saline (Otsuka normal saline, Otsuka Pharmaceutical Factory, Tokushima, Japan) (50 μl) was added to the test tube, which was then placed at room temperature for 5 min. Then, 50 μl of the saline solution containing 50 nmol CPP and 10 nmol Tris(2-carboxyethyl)phosphine hydrochloride (Nacalai Tesque, Kyoto, Japan) was added to the solution (50 μl) in the test tube and stirred for 12 h at room temperature. In this procedure, lactosome formation and TPP encapsulation by the lactosome were expected. At the same time, maleimide-PSar56-PLLA30 in the lactosome is expected to react with CPP, which contains a cysteine residue at its C-terminus (Table 1). This lactosome mixture was diluted with 400 μl of saline, and passed through a 0.1 μm syringe filter (Membrane Solutions, Dallas, USA) to remove large aggregates. Low molecular weight molecules were excluded from the mixture using Amicon Ultra-0.5 (MWCO 50 kDa, Merck Millipore, Darmstadt, Germany). To analyze concentrations of CPP, TPP and ICG-PLLA34, absorption spectra of the lactosome complexes were measured using a BioSpec spectrometer (Shimadzu, Kyoto, Japan). The particle size, size distribution, polydispersity index (PDI), and zeta potential were measured by Zetasizer Nano ZSP (Malvern Instruments, Malvern, UK).
(§2) The particle sizes of lactosome complexes were measured by dynamic light scattering (DLS). The average particle sizes of the CPP-modified lactosomes were 36–49 nm, which were slightly larger than the unmodified lactosomes (34.2 nm) (Table 2, Figure 1(b)). The zeta potential value of CPP-modified lactosomes (e.g. Pep1-modified lactosome: 1.7 mV, EB1-modified lactosome: 1.6 mV) was higher than that of the unmodified lactosomes (–4.6 mV) (Table 2). The increase in the zeta potential seems to be due to positively charged CPPs.

[2] = Particle size and polydispersity by dynamic light scattering (DLS); format: physicochemical; details: Zetasizer Nano ZSP, n = 3, mean ± standard deviation; for Diameter: lactosomes in saline
Experimental: as §1, §2

CHO cells = assay: Cellular uptake of ICG-labeled CPP-modified lactosomes; format: cell-based, Chinese hamster; details: for Cellular uptake level (in words): 10 nmol lactosome complexes, ICG fluorescence intensity divided by cell viability; for Cellular localization (co-localization with LysoTracker Green): 2 μM LysoTracker Green, further 3 h incubation; for ICG fluorescence in cells by fluorescence microscopy, compared to lactosomes without CPP: after washing
Experimental: CHO cells were cultured at 37°C under 5% CO2 in Ham’s F12 medium (Wako Pure Chemical) supplemented with 10% fetal bovine serum (FBS, Nichirei Biosciences, Tokyo Japan), 100 units ml^–1 penicillin (Gibco; Thermo Fisher Scientific, Waltham, Massachusetts, USA), and 100 μg ml^–1 streptomycin (Gibco; Thermo Fisher Scientific). The cells were seeded at a density of 2 × 10^4 cells/well in the 96-well plate, and incubated at 37°C under 5% CO2 overnight. The cells were then incubated at 37°C for 2 h with ICG-labeled lactosomes modified with CPPs (Tat, PTD4, DPV3, MPG^ΔNLS, R9MPG, Pep1, or EB1) dissolved in 200 μl T buffer. The lactosome solution was exchanged for Ham’s F12 medium before the fluorescence imaging. The cellular fluorescence images were obtained by fluorescence microscopy using an Olympus IX71 microscope (Olympus, Tokyo, Japan) with a 40 × objective lens and a U-DM-CY7–3 mirror unit.
LysoTracker Green (Thermo Fisher Scientific) was used for investigating cellular localization of CPP-modified lactosomes. After incubation of the cells with CPP-modified ICG-labeled lactosomes, the lactosome solution was exchanged with Ham’s F12 medium containing 2 μM LysoTracker Green. The cells were further incubated for 3 h. Then, the cell medium was replaced with Ham’s F12 medium, and fluorescence images were obtained.
To evaluate the cellular uptake of the lactosome complexes, the ICG fluorescence images were obtained using an IVIS spectrum system (Xenogen, Hopkinton, Massachusetts USA) with a filter set specific for ICG (excitation at 745 nm and emission at 840 ± 10 nm). The ICG fluorescence intensity was estimated from the photon counts of the images. Then, the cell medium was replaced with solution containing 10 μl of Cell Counting Kit-8 solution (Dojindo, Kumamoto, Japan) and 90 μl of Ham’s F12 medium, and the cells were incubated for an additional 1.5 h. After incubation, the cell viability was measured by absorbance at 450 nm using the microplate reader SunriseR (Tecan Japan, Kanagawa, Japan). Lactosome uptake levels were calculated by dividing ICG fluorescence intensity by cell viability of each well.

NCI-N87 cells = assay: Photoinduced cell killing (PDT treatment) with CPP/TPP-lactosomes, Cell Counting Kit-8; format: cell-based, human; details: 1.5 h at 37°C in T buffer, irradiation 340–390 nm, 200 mW cm^–2, 100 s, then 24 h culture, n = 3
Experimental: NCI-N87 cells were cultured at 37°C under 5% CO2 in RPMI1640 medium (Wako Pure Chemical) supplemented with 10% FBS, 100 units ml^–1 penicillin, and 100 μg ml^–1 streptomycin. NCI-N87 cells were seeded at a density of 4 × 10^4 cells/well in a 96-well plate, and incubated at 37°C for two days before treatment with the lactosome complex. CHO cells were cultured and seeded as described above. The effect of treatment with the TPP-loaded lactosomes and light on cell viability, which is related to PDT efficacy, was evaluated as follows: TPP-loaded lactosomes modified with CPPs (Pep1 or EB1) dissolved in 200 μl of T buffer (20 mM HEPES-KOH (pH 7.4), 115 mM NaCl, 5.4 mM KCl, 1.8 mM CaCl2, 0.8 mM MgCl2, and 13.8 mM glucose) were added to NCI-N87 cells (70% confluent) in the 96-well plate. The cells were incubated at 37°C for 1.5 h. After the lactosome solution was exchanged for T buffer, the cells were irradiated at 340–390 nm at 200 mW cm^–2 for 100 s. After irradiation, the cells were further incubated for 24 h at 37°C under 5% CO2 in the medium. Then, the cell medium was exchanged for the solution containing 10 μl of Cell Counting Kit-8 solution and 90 μl of RPMI1640 medium, and the cells were incubated at 37°C for 2 h. The cell viability was measured by the absorbance at 450 nm using a microplate reader SunriseR. […]

PANC-1 tumor = assay: In vivo ICG fluorescence imaging of tumor-bearing mice; set-up: species or system mice (BALB/c nu/nu); details: tail vein injection, imaging 24 h after injection, IVIS; three mice
Experimental: (§3) Six-week-old male nude mice (BALB/c nu/nu) were purchased from Charles River. Five weeks before the imaging, PANC-1 cells (1 × 10^7) suspended in 100 μl of 50% Matrigel Matrix (Corning Life Sciences, Corning, New York USA) in phosphate buffered saline was subcutaneously inoculated into the front left leg of mice. Two weeks after the first transplantation, NCI-N87 cells (4 × 10^6) were suspended in the Matrigel solution and subcutaneously inoculated into the front right leg of mice. Three weeks after the second transplantation, CPP/TPP/ICG-lactosomes were injected into the tumor-bearing mouse via the tail vein. After 24 h, ICG fluorescence images were taken using the IVIS spectrum system (excitation at 745 nm and emission at 840 ± 10 nm, field of view = 12.5 cm (width and height), f/stop = 2, binning = 4, and exposure time at 3 s). During the imaging process, the mice were anesthetized using 3.0% isoflurane gas in oxygen flow (0.5 l min^–1).

NCI-N87 tumor = assay: as above; set-up: species or system mice (BALB/c nu/nu); details: tail vein injection, imaging 24 h after injection, IVIS; three mice
Experimental: as §3

Substance | Zeta potential [1] [mV] | Diameter [2] [nm] | PDI (polydispersity index) [2] | further results
RRRRRRRRRGALFLAFLAAALSLMG-C (RRRRRRRRRGALFLAFLAAALSLMGC; also: C-terminal Cys linked via maleimide to PSar56-PLLA30 (lactosome)) [R9MPG, A3B-type lactosome modified with the CPP R9MPG via maleimide-PSar56-PLLA30] | −2.7±0.9 | 43.9±1.5 | 0.22±0.01 | 
KETWWETWWTEWSQPKKKRKV-C [Pep1, A3B-type lactosome modified with the CPP Pep1 via maleimide-PSar56-PLLA30] | 1.7±0.1 | 37.7±0.6 | 0.13±0.02 | Cellular uptake level relative to the EB1-modified lactosomes (CHO cells; 10 nmol lactosome complexes in T buffer, 2 h, 37°C, ICG fluorescence intensity (IVIS, ex 745 nm, em 840 nm) divided by cell viability (Cell Counting Kit-8), mean, n = 4): 0.62; Cellular uptake level (in words) (CHO cells; 2 h, 37°C): highly internalized; Cellular localization (co-localization with LysoTracker Green) (CHO cells): localized mainly in acidic organelles, including endosomes and lysosomes; ICG fluorescence in cells by fluorescence microscopy, compared to lactosomes without CPP (CHO cells; 2 h, 37°C): significantly strong ICG fluorescence
YARAAARQARA-C [PTD4, A3B-type lactosome modified with the CPP PTD4 via maleimide-PSar56-PLLA30] | −4.2±0.3 | 37.0±0.4 | 0.14±0.02 | 
RKKRRRESRKKRRRES-C (RKKRRRESRKKRRRESC; also: C-terminal Cys linked via maleimide to PSar56-PLLA30 (lactosome)) [DPV3, A3B-type lactosome modified with the CPP DPV3 via maleimide-PSar56-PLLA30] | −3.7±0.3 | 37.0±0.4 | 0.12±0.01 | 
KETWWETWWTEWSQPKKKRKV-C [Pep1/TPP-lactosomes, Pep1-modified lactosome loaded with the photosensitizer TPP] |  |  |  | Killing of NCI-N87 cells compared to the experiment without CPP/TPP-lactosomes (NCI-N87 cells): 67%
GALFLGFLGAAGSTMGAWSQPKSKRKV-C [MPG^ΔNLS, A3B-type lactosome modified with the CPP MPG^ΔNLS via maleimide-PSar56-PLLA30] | −2.9±0.6 | 49.1±0.5 | 0.29±0.02 | 
LIRLWSHLIHIWFQNRRLKWKKK-C [EB1/TPP/ICG-lactosomes, lactosome complex containing EB1, TPP, and ICG] |  |  |  | Accumulation in PANC-1 tumor (ICG fluorescence) (PANC-1 tumor): only slight ICG fluorescence was detected; Accumulation in NCI-N87 tumor (ICG fluorescence) (NCI-N87 tumor): accumulated in NCI-N87 tumors and liver
LIRLWSHLIHIWFQNRRLKWKKK-C (LIRLWSHLIHIWFQNRRLKWKKKC; also: C-terminal Cys linked via maleimide to PSar56-PLLA30 (lactosome)) [EB1, A3B-type lactosome modified with the CPP EB1 via maleimide-PSar56-PLLA30] | 1.6±0.3 | 38.3±0.2 | 0.12±0.01 | Cellular uptake level (in words) (CHO cells; 2 h, 37°C): most abundantly internalized; Cellular localization (co-localization with LysoTracker Green) (CHO cells): localized mainly in acidic organelles, including endosomes and lysosomes; ICG fluorescence in cells by fluorescence microscopy, compared to lactosomes without CPP (CHO cells; 2 h, 37°C): significantly strong ICG fluorescence
LIRLWSHLIHIWFQNRRLKWKKK-C [EB1/TPP-lactosomes, EB1-modified lactosome loaded with the photosensitizer TPP] |  |  |  | Killing of NCI-N87 cells compared to the experiment without CPP/TPP-lactosomes (NCI-N87 cells): 89%
YGRKKRRQRRR-C [Tat, A3B-type lactosome modified with the CPP Tat via maleimide-PSar56-PLLA30] | −3.6±0.1 | 36.2±0.3 | 0.10±0.01 | 
